PMC12867014, “Angiopoietin-like 3 monomers are abundant in human plasma but are unable to inhibit endothelial lipase” (JCI Insight, 2025)
Blank lines part the entries; values can stand above or below the molecule they belong to.

Experiments:
[1] = target: ANGPTL3 of human serum (human (endogenous in serum)); assay: SEC; Superdex 200 of pooled human serum, alone or spiked with conditioned media of recombinant wild-type or L124A human ANGPTL3 (L124A also run without serum); total ANGPTL3, trimeric ANGPTL3 and ANGPTL3/8 complexes in the fractions measured by dedicated immunoassays
[2] = target: Strep-tagged mouse ANGPTL3 (angiopoietin-like 3), wild-type (mouse); assay: mass photometry; Refeyn TwoMP, ambient temperature, DPBS; ANGPTL3 purified from conditioned media by Strep-TactinXT affinity chromatography
[3] = target: Strep-tagged mouse ANGPTL3 (angiopoietin-like 3), wild-type (mouse); assay: native gel or EMSA; blue NativePAGE (Bis-Tris 3-12% gels, run at room temperature) of conditioned media, immunoblot with an antibody against ANGPTL3
[4] = target: endogenous ANGPTL3 secreted from Huh7 cells (human (endogenous in Huh7)); assay: as above
[5] = target: mouse ANGPTL3 S220A-R221A (cleavage-resistant) (mouse); assay: mass photometry; Refeyn TwoMP, ambient temperature, DPBS; ANGPTL3 purified from conditioned media by Strep-TactinXT affinity chromatography
[6] = target: mouse ANGPTL3 S220A-R221A (cleavage-resistant) (mouse); assay: native gel or EMSA; blue NativePAGE (Bis-Tris 3-12% gels, run at room temperature) of conditioned media, immunoblot with an antibody against ANGPTL3
[7] = Western blot of conditioned media; conditions: glycan lost; control: wild type
[8] = target: the molecule itself; assay: SEC; Superdex 200 of pooled human serum, alone or spiked with conditioned media of recombinant wild-type or L124A human ANGPTL3 (L124A also run without serum); total ANGPTL3, trimeric ANGPTL3 and ANGPTL3/8 complexes in the fractions measured by dedicated immunoassays

Molecule: endogenous ANGPTL3 secreted from Huh7 cells (natural protein)
stoichiometry N [4]: 3

B1: ANGPTL3: M116A-S117A (protein)
parent chain: MHTIKLFLFVVPLVIASRVDPDLSSFDSAPSEPKSRFAMLDDVKILANGLLQLGHGLKDFVHKTKGQINDIFQKLNIFDQSFYDLSLRTNEIKEEEKELRRTTSTLQVKNEEVKNMSVELNSKLESLLEEKTALQHKVRALEEQLTNLILSPAGAQEHPEVTSLKSFVEQQDNSIRELLQSVEEQYKQLSQQHMQIKEIEKQLRKTGIQEPSENSLSSKSRAPRTTPPLQLNETENTEQDDLPADCSAVYNRGEHTSGVYTIKPRNSQGFNVYCDTQSGSPWTLIQHRKDGSQDFNETWENYEKGFGRLDGEFWLGLEKIYAIVQQSNYILRLELQDWKDSKHYVEYSFHLGSHETNYTLHVAEIAGNIPGALPEHTDLMFSTWNHRAKGQLYCPESYSGGWWWNDICGENNLNGKYNKPRTKSRPERRRGIYWRPQSRKLYAIKSSKMMLQPTT
expression_or_secretion [7]: no change

B2: recombinant wild-type human ANGPTL3 (His-tagged) (natural protein, UniProt Q9Y5C1 17-460, looked up)
chain: SRIDQDNSSFDSLSPEPKSRFAMLDDVKILANGLLQLGHGLKDFVHKTKGQINDIFQKLNIFDQSFYDLSLQTSEIKEEEKELRRTTYKLQVKNEEVKNMSLELNSKLESLLEEKILLQQKVKYLEEQLTNLIQNQPETPEHPEVTSLKTFVEKQDNSIKDLLQTVEDQYKQLNQQHSQIKEIENQLRRTSIQEPTEISLSSKPRAPRTTPFLQLNEIRNVKHDGIPAECTTIYNRGEHTSGMYAIRPSNSQVFHVYCDVISGSPWTLIQHRIDGSQNFNETWENYKYGFGRLDGEFWLGLEKIYSIVKQSNYVLRIELEDWKDNKHYIEYSFYLGNHETNYTLHLVAITGNVPNAIPENKDLVFSTWDHKAKGHFNCPEGYSGGWWWHDECGENNLNGKYNKPRAKSKPERRRGLSWKSQNGRLYSIKSTKMLIHPTDSESFE
notes: angiopoietin-like 3 (ANGPTL3), human, secreted into the medium; also called WT human ANGPTL3; wild-type trimeric ANGPTL3; source: HEK293T, transient transfection (Fugene6), conditioned media
stoichiometry N [8]: 3

The remaining lines, values ahead:

stoichiometry N [1]: 3
Molecule: ANGPTL3 of human serum (natural protein)

percent present as homotrimer [2]: 58%
stoichiometry N [2]: 3
stoichiometry N [3]: 3
Molecule: Strep-tagged mouse ANGPTL3 (angiopoietin-like 3), wild-type (natural protein)

stoichiometry N [5]: 3
stoichiometry N [6]: 3
Molecule: mouse ANGPTL3 S220A-R221A (cleavage-resistant) (natural protein)
